This is an account of results in patent US20220064322A1 (JACOBIO PHARMACEUTICALS, published 2022).

The target in assay [1] is T1, cynomolgus CD73 on the cell surface (293T/17-cynoCD73 cells) (cynomolgus (Macaca fascicularis), UniProt P21589 27-547 (human entry)).
T1 construct: it is an ecto-domain with a His tag
T1 chain: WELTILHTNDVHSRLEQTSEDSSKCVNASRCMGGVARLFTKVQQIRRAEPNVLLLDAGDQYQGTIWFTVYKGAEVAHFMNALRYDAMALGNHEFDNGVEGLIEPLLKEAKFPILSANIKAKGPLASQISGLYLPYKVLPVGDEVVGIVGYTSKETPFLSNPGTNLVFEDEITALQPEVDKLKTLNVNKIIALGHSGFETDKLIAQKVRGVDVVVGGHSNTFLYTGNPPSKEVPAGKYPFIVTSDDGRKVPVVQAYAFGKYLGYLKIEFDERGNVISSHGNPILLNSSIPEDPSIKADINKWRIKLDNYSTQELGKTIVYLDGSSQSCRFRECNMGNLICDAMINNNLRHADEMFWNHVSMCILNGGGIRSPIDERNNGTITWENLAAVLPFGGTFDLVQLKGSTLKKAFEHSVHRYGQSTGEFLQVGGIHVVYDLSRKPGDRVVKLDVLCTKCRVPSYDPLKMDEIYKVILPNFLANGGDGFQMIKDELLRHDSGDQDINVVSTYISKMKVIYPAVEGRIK
Briefly: flow cytometry on 293T/17 cells expressing cynoCD73, APC-labelled goat anti-human antibody, MFI. As to the method: (§1) 2×10⁶ cells resuspended in PBS buffer were distributed into 96-well plates and incubated with gradient diluted humanized antibodies for 1 h at refrigerator 4° C. or on ice, then the cells was centrifuged for 3 min 1500 rpm at 4° C. and washed three times by PBS, and diluted APC-labeled goat anti-human polyclonal antibody (Biolegend) were incubated for 30 min at refrigerator 4° C. Finally, the cells were washed three times with PBS as described above and analyzed on MACSQuant flow cytometer. GraphPad Prism software was used to generate data graphs and statistical affinity data.
(§2) The samples to be tested were incubated for 1 h at 4° C. after gradient dilution. After washing, 100 μL of APC-labeled secondary antibody was added to each well and incubated for 30 min. After washing, detecting on machine and the fluorescence value was read. GraphPad Prism software was used to generate data graphs and statistical affinity data.

For assay [2], the target named is T2, human CD73 ecto-domain recombinant protein (huCD73) (human, UniProt P21589 27-547).
T2 construct: also called soluble huCD73; soluble recombinant CD73
T2 sequence: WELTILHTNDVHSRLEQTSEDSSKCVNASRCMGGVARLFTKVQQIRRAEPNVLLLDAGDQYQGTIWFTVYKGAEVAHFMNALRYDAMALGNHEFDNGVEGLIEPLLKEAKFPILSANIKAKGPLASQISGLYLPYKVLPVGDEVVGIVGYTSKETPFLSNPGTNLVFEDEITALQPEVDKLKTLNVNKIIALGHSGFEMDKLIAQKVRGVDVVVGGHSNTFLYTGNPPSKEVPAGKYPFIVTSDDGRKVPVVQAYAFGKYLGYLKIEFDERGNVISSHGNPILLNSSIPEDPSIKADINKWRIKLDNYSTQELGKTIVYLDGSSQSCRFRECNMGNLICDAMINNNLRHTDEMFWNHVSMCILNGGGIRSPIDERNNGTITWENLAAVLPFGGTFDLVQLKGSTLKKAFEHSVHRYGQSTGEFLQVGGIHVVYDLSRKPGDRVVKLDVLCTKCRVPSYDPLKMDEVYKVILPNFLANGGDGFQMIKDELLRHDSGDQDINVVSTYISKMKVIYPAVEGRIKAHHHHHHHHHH
Briefly: indirect ELISA, coated huCD73 recombinant protein. How it is done: (§3) Incubated with gradient diluted 100 μL/well of antibodies for 1 h at room temperature. After the plates were washed 3 times with 200 ul/well of PBST, 100 ul of diluted HRP-labeled secondary antibody at a ratio of 1:5000 was added to each well, and the plates were incubated for 1 hour at room temperature. The plates were washed 3 times with 200 ul/well of PBST, 100 ul of TMB was added to each well and reacted for 5 minutes at room temperature in the dark. […] read the OD value. The affinity of humanized antibodies and parent antibodies were similar to the antigen (table 9).

Assay [3] concerns the target T1, cynomolgus CD73 on the cell surface …. The assay can be described thus: flow cytometry on 293T/17-Cyno CD73 cells, curve fit. As to the method: as §1, §2
For assay [4] the target is unchanged. The assay can be described thus: flow cytometry on 293T/17-Cyno CD73 cells. As to the method: as §1, §2
For assay [5], the target named is T2, human CD73 ecto-domain recombinant …. Briefly: indirect ELISA, plate coated with 1 ug/ml huCD73 recombinant protein, HRP-labelled secondary antibody, RFU. As to the method:
as §3

The target of assay [6] is T1, cynomolgus CD73 on the cell surface …. Briefly: cell-based or functional assay.
Assay [7] has as its target T2, human CD73 ecto-domain recombinant …. The assay can be described thus: indirect ELISA, coated huCD73 recombinant protein, curve fit. How it is done: as §3
The target in assay [8] is T1, cynomolgus CD73 on the cell surface …. Briefly: cell-based or functional assay.
The target of assay [9] is T2, human CD73 ecto-domain recombinant …. The assay can be described thus: indirect ELISA, coated soluble huCD73, HRP-labelled secondary antibody, OD450. As to the method: (§4) The indirect ELISA method was applied to evaluate the binding ability of each positive clone to soluble huCD73 protein. Soluble huCD73 was coated, and gradient diluted samples were incubated, then HPR-labeled secondary antibody was added, finally TMB was added to develop the color, and OD450 was read after termination.
(§5) 1 ug/ml of recombinant CD73 protein was coated on ELISA plates (Coning), incubate overnight at 4° C. The next day, wash 5 times in PBS and blocked with 200 ul/well 2% skimmed milk, a certain dose range of CD73 antibodies were incubated for 1 h at room temperature. Wash 5 times with PBST washing buffer (PBS, 0.05% Tween 20), add HRP-conjugated goat anti-mouse IgG (H+L) (Promega) and incubate at room temperature for 1 h to detect bound anti-CD73 antibodies; wash the plate 5 times again and add TMB (Life Technologies) for color development for 5 to 10 min; finally the reaction was stopped by adding 1N HCl, and the OD value was measured at 450 nm. GraphPad Prism software was used to generate data graphs and statistical affinity data.

Assay [10] shares this target. The assay can be described thus: cell-based or functional assay.
The target is the same in assay [11]. Briefly: indirect ELISA, coated soluble huCD73, curve fit. As to the method:
as §4, §5

The target is the same in assay [12]. The assay can be described thus: indirect ELISA, coated soluble huCD73. As to the method:
as §4, §5

Like-named read-outs stand apart in the source and are kept apart here.

B1: JB24H2L1 (antibody, human IgG1, kappa, V domains shown)
VH: QVQLVQSGAEVKKPGASVKMSCKASGYTFTDYNMHWVRQSPGKSLEWIGYIKPHNAGTTYNPKFEGRATLTVDTSASTAYMELSSLRSEDTAVYYCVRSDFLYWYFDVWGQGTTVTVSS
VL: DIQMTQSPSSLSASVGDRVTITCTASSSVSSSYLHWYQQKPGKAPKLLIYSTSNLASGVPSRFSGSGSGTDFTLTISSLQPEDFATYYCHQYHRSPLTFGAGTKLEIKR
notes: Humanized antibody of JB24Chi, human IgG1 / kappa
On to B1, for which the concentration giving a half-maximal response (EC50 (read off the curve)) in assay [1] is roughly 2 nM; in assay [5], roughly 0.2 µg/mL. In addition, the EC50 in assay [2] is 0.0248 nM; in assay [4] it was 1.89 nM. The Bottom in assay [3] turned out to be 1.4 fluorescence; in assay [7], 191 OD value. The Top amounted to 36.5 fluorescence in [3] and 6290 OD value in assay [7]. For the same molecule, the “IC50, blockade of 5'exonuclease activity on 293T/17-Cyno CD73 cells” value (from here on “IC50, blockade of 5'exonuclease activity”) in assay [6] was 0.079 nM.

B2: JB94H1L3 (antibody, human IgG1, kappa)
heavy: not shown
light: DIQMTQSPSSLSASVGDRVTITCKASQDINTYLSWFQQKPGKSPKSLIYRSNILVDGVPSRFSGSGSGQDYTLTISSLQPEDFAIYYCLQYDDFPYTFGQGTKLEIKRTVAAPSVFIFPPSDEQLKSGTASVVCLLNNFYPREAKVQWKVDNALQSGNSQESVTEQDSKDSTYSLSSTLTLSKADYEKHKVYACEVTHQGLSSPVTKSFNRGEC
notes: Humanized antibody of the 94 clone, human IgG1 / kappa
As for B2, the “EC50 (read off the curve)” value in assay [1] is roughly 5 nM; in assay [5], roughly 0.03 µg/mL. Besides, the EC50 in assay [2] worked out at 0.0289 nM; in assay [4], 5.42 nM. For the same molecule, the Bottom in assay [3] worked out at 1.51 fluorescence; in assay [7] it was 48.7 OD value. The Top in assay [3] came out at 78.7 fluorescence; in assay [7] it was 8290 OD value. The “IC50, blockade of 5'exonuclease activity” value in [6] is 0.017 nM.

B3: JB24Chi (antibody, human IgG1, kappa, V domains shown)
VH: QVQLQQSGLELVKPGASVKMSCKASGYTFTDYNMHWVKQSHGKSLEWIGYIKPHNGGTTYNPKFEGKATLTVNKSSSTAYMELRSLTSEDSAVYYCVRCDFLYWYFDVWGTGTTVTVSS
VL: DIVMTQSPAIMSASLGERVTMTCTASSSVSSSYLHWYQQKPGSSPKLWIYSTSNLASGVPGRFSGSGSGTSYSLTISSMEAEDAATYYCHQYHRSPLTFGAGTKLEMKR
notes: Phage antibody, chimeric human IgG1 / human kappa full chains
Turning to B3, the figures for the “IC50, blockade of 5'exonuclease activity” value in assay [8] and in [6] were 0.084 nM and 0.005 nM, respectively. Moreover, the figures for the 50% effective concentration (EC50 (read off the curve)) in assay [9] and in assay [5] were roughly 0.04 nM and roughly 0.1 µg/mL, respectively. The “Bottom (lower plateau of the fitted curve), blockade of soluble huCD73 enzyme activity (AMP hydrolysis, luciferase/CellTiter-Glo)” value in assay [10] is 14.7. Also, the “IC50, blockade of soluble huCD73 enzyme activity (AMP hydrolysis, luciferase/CellTiter-Glo)” value in assay [10] came to 0.401 nM. In assay [10], the “Top (upper plateau of the fitted curve), blockade of soluble huCD73 enzyme activity (AMP hydrolysis, luciferase/CellTiter-Glo)” value is 102. For the same molecule, the Bottom in assay [11] is 0.136 OD450; in assay [3], 0.709 fluorescence; in [7] it was 128 OD value. For the same molecule, the Top was determined as 3.09 OD450 in assay [11], 68.5 fluorescence in assay [3] and 6600 OD value in assay [7]. Also, the EC50 was 0.039 nM in assay [12], 0.0273 nM in assay [2] and 6.38 nM in assay [4].
